Experimental findings from patent US20200317768A1 (published 2020) are described below.

Residue numbers refer to the chain shown, from its start. Names may count otherwise.

The chains are these.
T1: human FcγRIIaH extracellular domain, C-terminal His-tag (human, UniProt P12318 34-217)
T1 construct: also called human FcγRIIa (type H); FcgRIIaH; not shown: His-tag added to C-terminus
T1 sequence: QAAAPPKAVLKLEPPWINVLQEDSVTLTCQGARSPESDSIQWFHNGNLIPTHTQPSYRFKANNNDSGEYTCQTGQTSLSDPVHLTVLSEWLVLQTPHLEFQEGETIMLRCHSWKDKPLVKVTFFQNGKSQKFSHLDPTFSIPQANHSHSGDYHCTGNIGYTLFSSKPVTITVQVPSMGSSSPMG

T2: human FcγRIIb extracellular domain, C-terminal His-tag (human, UniProt P31994 43-217)
T2 construct: also called humanFcgRIIb; not shown: His-tag added to C-terminus
T2 sequence: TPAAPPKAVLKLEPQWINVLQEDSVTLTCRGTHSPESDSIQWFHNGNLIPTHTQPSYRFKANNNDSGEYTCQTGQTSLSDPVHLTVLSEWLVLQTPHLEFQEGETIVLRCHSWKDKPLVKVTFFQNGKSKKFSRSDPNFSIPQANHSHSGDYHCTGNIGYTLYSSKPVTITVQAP

T3: cynomolgus monkey FcγRIIa1 extracellular domain, C-terminal His-tag (cynomolgus monkey)
T3 construct: also called cyno FcγRIIa1; cynoFcgRIIa1; not shown: His-tag added to C-terminus
T3 chain: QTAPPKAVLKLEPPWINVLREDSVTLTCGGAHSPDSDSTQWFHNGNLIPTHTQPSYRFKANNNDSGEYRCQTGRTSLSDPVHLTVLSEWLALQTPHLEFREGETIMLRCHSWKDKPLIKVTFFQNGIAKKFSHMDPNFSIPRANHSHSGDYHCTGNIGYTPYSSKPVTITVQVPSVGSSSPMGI

T4: human FcγRIIaR extracellular domain, C-terminal His-tag (human, UniProt P12318 34-217)
T4 construct: also called human FcγRIIa (type R); FcgRIIaR; not shown: His-tag added to C-terminus
T4 chain: T1 sequence with H134R

T5: human FcγRIIaH extracellular domain, His-tagged (human, UniProt P12318 34-217)
T5 construct: also called human FcgRIIaH; FcγRIIa (type H); not shown: His-tag added to the C-terminus
T5 sequence: T1 sequence

T6: cynomolgus monkey FcγRIIb extracellular domain, His-tagged (cynomolgus monkey)
T6 construct: also called cyno FcgRIIb; cynoFcγRIIb; not shown: His-tag added to the C-terminus
T6 chain: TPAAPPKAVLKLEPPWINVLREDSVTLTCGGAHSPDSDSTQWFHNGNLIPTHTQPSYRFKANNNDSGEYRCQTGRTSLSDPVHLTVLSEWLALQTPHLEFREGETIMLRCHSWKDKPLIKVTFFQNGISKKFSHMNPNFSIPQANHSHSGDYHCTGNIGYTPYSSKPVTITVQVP

T7: cynomolgus monkey FcγRIIa3 extracellular domain, His-tagged (cynomolgus monkey)
T7 construct: also called cyno FcgRIIa3; cynoFcγRIIa3; not shown: His-tag added to the C-terminus
T7 chain: T3 chain with P95T, T121A, A128S, H133P, D135N

B1: MS_M103205H795-SG1/M103202L889-SK1 (antibody, human IgG1, kappa)
heavy: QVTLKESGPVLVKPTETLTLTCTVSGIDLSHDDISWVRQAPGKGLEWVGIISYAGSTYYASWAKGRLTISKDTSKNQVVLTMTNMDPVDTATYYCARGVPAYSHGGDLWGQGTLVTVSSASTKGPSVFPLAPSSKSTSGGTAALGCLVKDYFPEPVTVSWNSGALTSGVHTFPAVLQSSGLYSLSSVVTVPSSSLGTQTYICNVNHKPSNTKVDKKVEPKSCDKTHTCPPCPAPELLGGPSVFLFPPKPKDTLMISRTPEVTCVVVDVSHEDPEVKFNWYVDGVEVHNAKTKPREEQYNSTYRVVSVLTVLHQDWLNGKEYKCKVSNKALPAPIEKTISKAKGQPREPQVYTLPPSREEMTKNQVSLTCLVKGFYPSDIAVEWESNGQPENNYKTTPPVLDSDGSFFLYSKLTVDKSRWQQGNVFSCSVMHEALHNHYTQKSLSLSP
light: DIVMTQSPATLSLSPGERATLSCTSSQSVYHANWLSWFQQKPGQPPKLLIYWASTLAYGVPSRFSGSGSGTDFTLTISSLQPEDAATYYCAGGYGGGRYAFGQGTKVEIKRTVAAPSVFIFPPSDEQLKSGTASVVCLLNNFYPREAKVQWKVDNALQSGNSQESVTEQDSKDSTYSLSSTLTLSKADYEKHKVYACEVTHQGLSSPVTKSFNRGEC
notes: Parent antibody with SG1 human heavy chain constant region; also called MS1032LO06-SG1
B2: M103205H795-PK2 / M103202L889-SK1 (antibody, human IgG1, kappa)
heavy: QVTLKESGPVLVKPTETLTLTCTVSGIDLSHDDISWVRQAPGKGLEWVGIISYAGSTYYASWAKGRLTISKDTSKNQVVLTMTNMDPVDTATYYCARGVPAYSHGGDLWGQGTLVTVSSASTKGPSVFPLAPSSKSTSGGTAALGCLVKDYFPEPVTVSWNSGALTSGVHTFPAVLQSSGLYSLSSVVTVPSSSLGTQTYICNVNHKPSNTKVDKKVEPKSCDKTHTCPPCPAPELLNGPSVFLFPPKPKDTLMISRTPEVTCVVVDVSEEDPEVKFNWYVDGVEVHNAKTKPREEQYNSTYRVVSVLTVLHQDWLNGKEYKCKVSNKALPKPIEKTISKAKGQPREPQVYTLPPSREEMTKNQVSLTCLVKGFYPSDIAVEWESNGQPENNYKTTPMVLDRDGSFFLYSKLTVKKSRWQQGNVFSCSVMHEALHNHYTQKSLSLSP
light: B1 light
notes: CH with G236N/H268E/A330K/P396M/S400R/D413K against SG1 (EU numbering); also called MS1032LO06-PK2; MS103205H795-PK2
B3: M103205H795-MY201 / M103202L889-SK1 (antibody, human IgG1, kappa)
heavy: B2 heavy with E270D, M398P, R402S, K415D
light: B1 light
notes: CH with G236N/H268D/A330K against SG1 (EU numbering); also called MS1032LO06-MY201
B4: M103205H795-MY101 / M103202L889-SK1 (antibody, human IgG1, kappa)
heavy: B2 heavy with R402S, K415D
light: B1 light
notes: CH with G236N/H268E/A330K/P396M against SG1 (EU numbering); also called MS1032LO06-MY101
B5: M103205H795-MY205 / M103202L889-SK1 (antibody, human IgG1, kappa)
heavy: B2 heavy with E270D, Q297L, M398P, R402S, K415D
light: B1 light
notes: CH with G236N/H268D/Q295L/A330K against SG1 (EU numbering); also called MS1032LO06-MY205
B6: M103205H795-MY335 / M103202L889-SK1 (antibody, human IgG1, kappa)
heavy: B2 heavy with N238T, E270D, Q313R, M398P, R402S
light: B1 light
notes: CH with G236T/H268D/Q311R/A330K/D413K against SG1 (EU numbering); also called MS1032LO06-MY335
B7: M103205H795-MY344 / M103202L889-SK1 (antibody, human IgG1, kappa)
heavy: B2 heavy with E270D, Q297L, Q313R, M398P, R402S
light: B1 light
notes: CH with G236N/H268D/Q295L/Q311R/A330K/D413K against SG1 (EU numbering); also called MS1032LO06-MY344
B8: M103205H795-MY351 / M103202L889-SK1 (antibody, human IgG1, kappa)
heavy: B2 heavy with E270D, Q313R, M398P, R402S
light: B1 light
notes: CH with G236N/H268D/Q311R/A330K/D413K against SG1 (EU numbering); also called MS1032LO06-MY351
B9: MS1032LO06-SG1 (M103205H795-SG1/M103202L889-SK1) (antibody, human IgG1, kappa)
heavy: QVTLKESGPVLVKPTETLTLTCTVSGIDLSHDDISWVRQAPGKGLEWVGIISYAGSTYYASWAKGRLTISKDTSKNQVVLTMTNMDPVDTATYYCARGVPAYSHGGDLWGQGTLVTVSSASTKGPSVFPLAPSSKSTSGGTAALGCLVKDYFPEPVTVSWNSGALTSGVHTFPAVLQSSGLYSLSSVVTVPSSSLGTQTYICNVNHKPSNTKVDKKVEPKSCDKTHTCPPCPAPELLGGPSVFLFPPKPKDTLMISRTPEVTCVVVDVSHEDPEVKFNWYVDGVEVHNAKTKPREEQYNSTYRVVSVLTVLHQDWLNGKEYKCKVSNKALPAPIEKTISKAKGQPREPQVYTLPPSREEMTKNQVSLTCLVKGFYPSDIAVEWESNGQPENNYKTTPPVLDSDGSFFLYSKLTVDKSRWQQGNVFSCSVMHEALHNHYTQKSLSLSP
light: B1 light
notes: Anti-latent myostatin antibody; Parent of the Fc variants; copies: 2 + 2
B10: M103205H795-MY201/M103202L889-SK1 (antibody, human IgG1, kappa)
heavy: B2 heavy with E270D, M398P, R402S, K415D
light: B1 light
notes: Fc variant G236N/H268D/A330K (EU numbering) of SG1; also called MS1032LO06-MY201; copies: 2 + 2
B11: M103205H795-MY260/M103202L889-SK1 (antibody, human IgG1, kappa)
heavy: B2 heavy with N238M, E270D, M398P, R402S, K415D
light: B1 light
notes: copies: 2 + 2

For the first test, the target named is T1, human FcγRIIaH extracellular domain, …. Put plainly: SPR (BIACORE); KD of SG1 / KD of variant.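 Note: relative to parent M103205H795-SG1 carrying the SG1 human heavy chain constant region.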 In general terms: In SPR one partner is held on a chip, and binding of the other changes the refractive index at the surface.
On to B1, for which the “KD fold (SG1 = 1)” value was determined as 1 fold.

Regarding B2, the “KD fold (SG1 = 1)” value came out at 1.2 fold.

B3: the “KD fold (SG1 = 1)” value was 0.8 fold.

In the case of B4, the “KD fold (SG1 = 1)” value worked out at 1.4 fold.

As to B5, the “KD fold (SG1 = 1)” value is 1.5 fold.

Regarding B6, the “KD fold (SG1 = 1)” value was 2.4 fold.

For the molecule B7, the “KD fold (SG1 = 1)” value amounted to 1 fold.

Turning to B8, the “KD fold (SG1 = 1)” value came out at 0.7 fold.

Another test has as its target T2, human FcγRIIb extracellular domain, …. The test can be described thus: SPR (BIACORE); KD of SG1 / KD of variant.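 Note: relative to parent M103205H795-SG1 carrying the SG1 human heavy chain constant region.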
On to B1, for which the “KD fold (SG1 = 1)” value came out at 1 fold.

B2: the “KD fold (SG1 = 1)” value came to 7.8 fold.

For B3, the “KD fold (SG1 = 1)” value turned out to be 4.2 fold.

In the case of B4, the “KD fold (SG1 = 1)” value turned out to be 9.4 fold.

Turning to B5, the “KD fold (SG1 = 1)” value was determined as 8.2 fold.

As to B6, the “KD fold (SG1 = 1)” value was found to be 2 fold.

Consider B7, for which the “KD fold (SG1 = 1)” value was 6.4 fold.

As to B8, the “KD fold (SG1 = 1)” value was determined as 3.8 fold.

The target of another test is T3, cynomolgus monkey FcγRIIa1 …. Put plainly: SPR (BIACORE); KD of SG1 / KD of variant.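 Note: relative to parent M103205H795-SG1 carrying the SG1 human heavy chain constant region.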
Take B1: the “KD fold (SG1 = 1)” value worked out at 1 fold.

Regarding B2, the “KD fold (SG1 = 1)” value was determined as 2.5 fold.

Turning to B3, the “KD fold (SG1 = 1)” value was 2.3 fold.

On to B4, for which the “KD fold (SG1 = 1)” value is 2.9 fold.

Consider B5, for which the “KD fold (SG1 = 1)” value came out at 3.6 fold.

Consider B6, for which the “KD fold (SG1 = 1)” value was determined as 1.6 fold.

For the molecule B7, the “KD fold (SG1 = 1)” value is 3.6 fold.

With B8, the “KD fold (SG1 = 1)” value came out at 3.5 fold.

For a further test, the target named is T4, human FcγRIIaR extracellular domain, …. Put plainly: SPR (BIACORE); KD of SG1 / KD of variant.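 Note: relative to parent M103205H795-SG1 carrying the SG1 human heavy chain constant region.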
On to B1, for which the “KD fold (SG1 = 1)” value came out at 1 fold.

Turning to B2, the “KD fold (SG1 = 1)” value was 1 fold.

Consider B3, for which the “KD fold (SG1 = 1)” value came to 0.6 fold.

As to B4, the “KD fold (SG1 = 1)” value worked out at 1.3 fold.

B5: the “KD fold (SG1 = 1)” value was 0.8 fold.

Take B6: the “KD fold (SG1 = 1)” value amounted to 3.8 fold.

In the case of B7, the “KD fold (SG1 = 1)” value was 0.9 fold.

For B8, the “KD fold (SG1 = 1)” value turned out to be 0.7 fold.

Another test deals with T8, cynomolgus monkey FcγRIIIaS extracellular domain, His-tagged (cynomolgus monkey, UniProt A3RFZ7 21-206 (rhesus entry)).
T8 construct: also called cyno FcgRIIIaS; cynoFcγRIIIaS; not shown: His-tag added to the C-terminus
The test can be described thus: SPR (BIACORE), antibody captured, FcγR as analyte, 25°C. As for the experimental part: (§1) The kinetic analysis of interactions between these antibodies and FcγR was carried out using BIACORE® T200 or BIACORE® 4000 (GE Healthcare). HBS-EP+ (GE Healthcare) was used as the running buffer, and the measurement temperature was set to 25° C. A chip produced by immobilizing Protein A. Protein A/G or mouse anti-human IgG kappa light chain (BD Biosciences) onto a Series S Sensor Chip CM4 or CM5 (GE Healthcare) by the amine-coupling method was used. […] After the measurement, the antibody captured on the chip was washed off by allowing reaction with 10 mM glycine-HCl, pH1.5 and 25 mM NaOH so that the chip was regenerated and used repeatedly. The sensorgrams obtained as measurement results were analyzed by the 1:1 Langmuir binding model using the BIACORE® Evaluation Software to calculate the binding rate constant ka (L/mol/s) and dissociation rate constant kd (l/s), and the dissociation constant KD (mol/L) was calculated from these values. […] Regarding such interactions, KD values were calculated using the following 1:1 binding model described in BIACORE® T100 Software Handbook BR1006-48 Edition AE.
(§2) The behavior of interacting molecules according to the 1:1 binding model on BIACORE® can be described by Equation 1: Req=C·R max/(KD+C)+RI, wherein, Req is a plot of steady-state binding levels to analyte concentration. C is concentration, RI is bulk refractive index contribution in the sample, and Rmax is analyte binding capacity of the surface. When this equation is rearranged, KD can be expressed as Equation 2: KD=C·Rmax/(Req−RI)−C. KD can be calculated by substituting the values of Rmax, RI, and C into Equation 1 or Equation 2. From the current measurement conditions, RI=0, C=2 μmol/L can be used.
As a reminder, the Kd is the equilibrium constant for the complex coming apart. On to B9, for which binding was put at a Kd of 0.36 µM.

In turn, B10 returned a Kd of 5.7 µM.

As for B11, the Kd amounted to 0.65 µM.

For another test, the target named is T5, human FcγRIIaH extracellular domain, …. The description is as above. The method, then:
as §1, §2
As to B9, the Kd came out at 0.69 µM.

The molecule B10 yielded a Kd of 0.91 µM.

B11: the Kd was found to be 0.91 µM.

In another test the target is T9, human FcγRIIIaV extracellular domain, His-tagged (human, UniProt P08637 17-208).
T9 construct: also called human FcgRIIIaV; not shown: His-tag added to the C-terminus
T9 sequence (P08637 17-208 F176V): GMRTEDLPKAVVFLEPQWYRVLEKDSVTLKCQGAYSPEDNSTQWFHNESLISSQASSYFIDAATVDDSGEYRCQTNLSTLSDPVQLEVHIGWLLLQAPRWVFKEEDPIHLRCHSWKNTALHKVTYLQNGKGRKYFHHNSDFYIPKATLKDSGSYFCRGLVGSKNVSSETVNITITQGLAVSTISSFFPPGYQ
The description is as above. As for the experimental part: as §1, §2
Take B9: binding was put at a Kd of 0.81 µM.

As for B10, the Kd came out at 24 µM.

Turning to B11, the Kd is 3 µM.

The next test has as its target T6, cynomolgus monkey FcγRIIb extracellular …. Described as above. The method, then: as §1, §2
As for B9, the Kd turned out to be 1.8 µM.

In turn, B10 gave a Kd of 0.43 µM.

Turning to B11, the Kd stood at 1.6 µM.

In the next test the target is T7, cynomolgus monkey FcγRIIa3 …. The test is described as above. The method, then: as §1, §2
In turn, B9 showed a Kd of 17 µM.

Molecule B10 yielded a Kd of 3.9 µM.

As for B11, the Kd was 14 µM.
